Our source for the infection of 3T3 cells after CAR gene transfer (% eGFP-positive by FACS; 3% without CAR), infection of CHO cells after CAR gene transfer (% eGFP-positive by FACS; 0% without CAR) and percent of cells positive for CAR values is patent US20020127721A1.

Assay [1] concerns the target human coxsackievirus and adenovirus receptor (CAR) (human) (UniProt P78310). The assay can be described thus: cell-based or functional assay.
Assay [2] has the same target. The assay can be described thus: flow cytometry, RmcB staining of 3T3 cells after Ad5CMVhCAR:CaPi gene transfer.
Assay [3] shares this target. The assay can be described thus: flow cytometry, RmcB staining of CHO cells after Ad5CMVhCAR:CaPi gene transfer. Background: Flow cytometry measures light scatter and fluorescence of single cells or particles in a stream.

UniProt P78310, sequence (P78310 20-365): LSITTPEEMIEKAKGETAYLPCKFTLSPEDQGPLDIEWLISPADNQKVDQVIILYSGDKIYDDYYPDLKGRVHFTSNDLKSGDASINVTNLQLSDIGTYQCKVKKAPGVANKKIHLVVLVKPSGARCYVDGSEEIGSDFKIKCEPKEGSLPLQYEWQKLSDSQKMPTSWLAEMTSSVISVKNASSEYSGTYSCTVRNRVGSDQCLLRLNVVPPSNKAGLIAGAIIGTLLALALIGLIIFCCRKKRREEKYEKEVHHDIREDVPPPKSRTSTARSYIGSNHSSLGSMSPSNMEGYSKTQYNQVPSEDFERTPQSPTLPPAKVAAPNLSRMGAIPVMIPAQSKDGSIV

In assay [1], “Ad5 fiber (endogenous, non-recombinant fiber of the control virus Ad5RSVeGFP) (from UniProt P11818 1-581)” displayed an infection of 3T3 cells after CAR gene transfer (% eGFP-positive by FACS; 3% without CAR) of 21% and an infection of CHO cells after CAR gene transfer (% eGFP-positive by FACS; 0% without CAR) of 57%.
With “monoclonal antibodies (mAbs) against CAR (RmcB) (antibody)”, the values for the percent of cells positive for CAR in assay [2] and in assay [3] were 92% and 96%, respectively.
